Laboratory results as given in patent US20220064331A1 (Genentech, published 2022).

T1: mouse KLB (mouse, UniProt Q99N32 53-990)
T1 construct: expressed from KLB cDNA on HEK293T cells and read by FACS; also called msKLB
T1 sequence: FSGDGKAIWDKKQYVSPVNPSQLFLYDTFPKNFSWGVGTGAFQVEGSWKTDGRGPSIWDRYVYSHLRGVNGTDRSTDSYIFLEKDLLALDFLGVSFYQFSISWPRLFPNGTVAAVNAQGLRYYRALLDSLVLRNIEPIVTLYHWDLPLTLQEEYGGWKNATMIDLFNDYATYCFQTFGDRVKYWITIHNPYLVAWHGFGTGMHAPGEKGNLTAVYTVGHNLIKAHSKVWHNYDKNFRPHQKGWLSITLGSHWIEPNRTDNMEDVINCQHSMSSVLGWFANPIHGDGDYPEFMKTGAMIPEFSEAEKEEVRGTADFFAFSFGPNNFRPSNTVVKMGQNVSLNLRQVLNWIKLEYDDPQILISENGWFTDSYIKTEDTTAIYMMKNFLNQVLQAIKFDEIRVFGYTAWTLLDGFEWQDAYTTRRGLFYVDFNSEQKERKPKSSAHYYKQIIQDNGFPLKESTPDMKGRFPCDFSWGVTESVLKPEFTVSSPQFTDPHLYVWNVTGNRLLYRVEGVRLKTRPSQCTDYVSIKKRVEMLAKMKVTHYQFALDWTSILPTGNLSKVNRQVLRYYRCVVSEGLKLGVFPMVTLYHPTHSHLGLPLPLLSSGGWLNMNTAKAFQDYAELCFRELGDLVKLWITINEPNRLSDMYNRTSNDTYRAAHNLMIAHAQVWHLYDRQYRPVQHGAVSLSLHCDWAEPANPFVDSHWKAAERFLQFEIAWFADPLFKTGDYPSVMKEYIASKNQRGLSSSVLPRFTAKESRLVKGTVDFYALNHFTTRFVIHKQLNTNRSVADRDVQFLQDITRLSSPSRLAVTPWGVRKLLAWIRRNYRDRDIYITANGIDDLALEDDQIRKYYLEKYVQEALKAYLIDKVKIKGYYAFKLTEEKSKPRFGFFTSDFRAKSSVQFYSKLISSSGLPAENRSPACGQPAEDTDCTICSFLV

T2: rat KLB (+N-ter FLAG) (rat, UniProt Q99N32 53-989 (mouse entry))
T2 construct: expressed from KLB cDNA on HEK293T cells and read by FACS
T2 chain: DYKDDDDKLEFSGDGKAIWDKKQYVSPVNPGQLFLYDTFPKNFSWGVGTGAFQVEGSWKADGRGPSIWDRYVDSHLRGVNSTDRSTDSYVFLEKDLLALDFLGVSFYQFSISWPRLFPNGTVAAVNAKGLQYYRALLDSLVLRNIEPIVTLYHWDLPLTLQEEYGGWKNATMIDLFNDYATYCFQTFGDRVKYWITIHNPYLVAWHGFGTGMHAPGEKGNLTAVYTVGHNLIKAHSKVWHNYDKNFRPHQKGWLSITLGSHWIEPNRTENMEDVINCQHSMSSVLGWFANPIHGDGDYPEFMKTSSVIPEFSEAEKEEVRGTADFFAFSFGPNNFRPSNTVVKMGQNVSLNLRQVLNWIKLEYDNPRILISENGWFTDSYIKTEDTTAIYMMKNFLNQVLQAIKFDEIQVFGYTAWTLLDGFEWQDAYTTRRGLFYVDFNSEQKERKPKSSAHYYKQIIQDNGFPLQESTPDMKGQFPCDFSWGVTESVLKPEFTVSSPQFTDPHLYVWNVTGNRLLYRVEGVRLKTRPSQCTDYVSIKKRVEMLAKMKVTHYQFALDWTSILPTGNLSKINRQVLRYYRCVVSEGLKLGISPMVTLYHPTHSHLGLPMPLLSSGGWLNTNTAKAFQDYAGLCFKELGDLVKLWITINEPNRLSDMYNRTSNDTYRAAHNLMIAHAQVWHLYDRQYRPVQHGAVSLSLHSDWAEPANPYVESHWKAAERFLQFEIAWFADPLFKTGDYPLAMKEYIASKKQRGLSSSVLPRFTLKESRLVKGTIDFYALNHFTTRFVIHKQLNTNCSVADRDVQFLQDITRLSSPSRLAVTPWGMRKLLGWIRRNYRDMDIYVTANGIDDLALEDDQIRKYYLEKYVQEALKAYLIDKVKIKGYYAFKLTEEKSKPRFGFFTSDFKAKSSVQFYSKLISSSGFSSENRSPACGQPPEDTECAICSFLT

T3: cynomolgus monkey KLB (+N-ter FLAG) (cynomolgus monkey, UniProt Q86Z14 53-991 (human entry))
T3 construct: expressed from KLB cDNA on HEK293T cells and read by FACS; also called Cyno KLB
T3 chain: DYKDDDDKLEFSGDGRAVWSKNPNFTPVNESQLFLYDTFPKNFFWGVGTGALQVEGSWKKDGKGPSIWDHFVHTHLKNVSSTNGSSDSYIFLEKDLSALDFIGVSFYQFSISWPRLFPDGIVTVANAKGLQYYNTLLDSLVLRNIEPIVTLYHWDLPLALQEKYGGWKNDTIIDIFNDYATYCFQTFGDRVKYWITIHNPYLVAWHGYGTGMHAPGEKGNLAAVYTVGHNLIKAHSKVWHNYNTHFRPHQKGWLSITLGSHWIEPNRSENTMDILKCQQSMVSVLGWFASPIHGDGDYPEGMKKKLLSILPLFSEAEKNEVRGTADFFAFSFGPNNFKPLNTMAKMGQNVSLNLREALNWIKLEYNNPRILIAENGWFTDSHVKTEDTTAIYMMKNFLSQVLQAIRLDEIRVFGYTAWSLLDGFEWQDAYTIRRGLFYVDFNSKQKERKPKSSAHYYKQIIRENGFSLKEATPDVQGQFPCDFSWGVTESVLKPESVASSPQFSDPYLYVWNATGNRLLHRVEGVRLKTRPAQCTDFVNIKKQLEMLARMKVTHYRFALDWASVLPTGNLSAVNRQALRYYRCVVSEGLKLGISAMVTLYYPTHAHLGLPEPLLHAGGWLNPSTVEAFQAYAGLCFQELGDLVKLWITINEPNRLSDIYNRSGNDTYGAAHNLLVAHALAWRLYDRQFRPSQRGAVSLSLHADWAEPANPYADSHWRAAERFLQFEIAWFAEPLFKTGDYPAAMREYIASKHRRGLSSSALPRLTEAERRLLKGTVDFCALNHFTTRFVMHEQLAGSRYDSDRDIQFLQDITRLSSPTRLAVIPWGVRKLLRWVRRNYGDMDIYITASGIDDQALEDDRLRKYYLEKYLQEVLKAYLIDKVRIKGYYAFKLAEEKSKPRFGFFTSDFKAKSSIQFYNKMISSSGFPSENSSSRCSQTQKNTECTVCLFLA


Assays:
Assay in all cases: FACS on transfected HEK293T cells
mouse KLB = target: T1, mouse KLB
Description: (§1) Species cross reactivity of the disclosed anti-KLB antibodies were analyzed by FACS analysis using KLB cDNA from mouse, rat, rabbit, cynomolgus monkey and rhesus monkey cloned into pRK mammalian expression vectors transiently transfected into HEK293T cells. The KLB extracellular domain polypeptide sequences that were expressed are as follows: […]

rat KLB (+N-ter FLAG) = target: T2, rat KLB (+N-ter FLAG)
Description: as §1

[1] = target: T3, cynomolgus monkey KLB (+N-ter FLAG)
Description: as §1

| Binder | binding result (mouse KLB) | binding result (rat KLB (+N-ter FLAG)) | binding result [1] |
| --- | --- | --- | --- |
| 6C1 (antibody, V domains shown, murine hybridoma-derived anti-KLB antibody; also called KLBmAb4) VH: QVQLQQSGDELMKPGASVKISCKVTGNTFSSYWIEWVKQRPGHGLEWIGEILPGSDSTKYVEKFKVKATFTADTSSNTAYMQLSSLTSEDSAVYYCARGGYHYPGWLVYWGQGTLVTVSA VL: DIVMTQSQKFMSTSVGDRVSVTCKASQNVDSYVAWYQQKAGQSPKPLIYSASYRFSGVPDRFTGSGSGTEFTLTISNVQSEDLAEYFCQQYNISPYTFGGGTKLEIK | no binding | no binding | binds |
| 46C3 (antibody, V domains shown, murine hybridoma-derived anti-KLB antibody) VH: EVQLQQSGAELVKPGASVKLSCTASDFNIIDTYIHWVKQRPEQGLEWIGRIDPANGNTKYDPKFQDKAALTSDTDSNTAYLLFNSLTSEDTAVYYCARGTSYSWFAYWGQGTLVSVSA VL: AVLMTQTPLSLPVSLGDQASISCRSSQNIVHSDGNTYLEWYLQKPGQSPKLLIYKVSNRFSGVPDRFSGSGSGRDFTLKISRVEAGDLGVYYCFQGSHVLTFGAGTRLELK | no binding | no binding | no binding |
| 11F1 (antibody, V domains shown, murine hybridoma-derived anti-KLB antibody) VH: EVQLVESGGGLVKPGGSLKLSCAPSGFTFSSYGISWVRQTPEKRLEWVATVSSGGRYTYYPDSVKGRFTISRDNAENTLYLQMSSLRSEDTAMYYCTRGGDGYALDYWGQGTSVTVSS VL: DIQMTQTTSSLSASLGDRVTIICSASQVISNYLNWYQQKPDGTVKLLIYFTSSLRSGVPSRFSGSGSGTDYSLTISNLEPEDVATYFCQQYSKLPWTFGGGTKLELK | no binding | no binding | binds |

Other lines, results leading:

| binding result (mouse KLB) | binding result (rat KLB (+N-ter FLAG)) | binding result [1] | Binder |
| --- | --- | --- | --- |
| no binding | no binding | binds | 14C10 (antibody, V domains shown, murine hybridoma-derived anti-KLB antibody; also called KLBmAb3) VH: QVTLKESGPGILQPSQTLSLTCSFSGFSLSTSAMGIGWIRQPSGKGLEWLAHIWWDDDKRYNPALKSRLTISKDTSRNQVFLKIASVDTADTATYFCARIDGIYDGSFYAMDYWGQGTSVTVSS VL: DIVLTQSPASLAVSLGQRATISCRASESVDSYGNSFMHWYQQKPGQPPKLLIYRASNLESGIPARFSGSGSRTDFTLTINPVEADDVANYYCQQSNEDYTFGGGTKLEIK |
| no binding | no binding | binds | 11D4 (antibody, V domains shown, murine hybridoma-derived anti-KLB antibody; also called KLBmAb5) VH: QVQVKESGPGLVAPSQSLSITCTVSGFSLTNYGVSWIRQPPGKGLEWLGVIWGDGSINYHSALISRLTITKDNSKSQVFLKLNSLEADDTATYYCAKTHDWFDYWGQGTLVTVSA VL: DIQMTQTPSSLSASLGDRVTINCRASQDISNYFNWYQQKPNGTIKLLIYYTSRLQSGVPSRFSGSGSGTDYSLTISNLEQEDKATYFCHQVRTLPWTFGGGTKLEIK |
| binds | binds | binds | 14E6 (antibody, V domains shown, murine hybridoma-derived anti-KLB antibody) VH: EVPLQQSGPELVKPGATVKISCKPSGDTFTEYTMNWVRQSHGKSLEWIGGINPNNGETSYNQKFKGKATLTVDKSSSTAFMDLRILTSEDSAVYFCARKTTNYWGQGTTLIVSS VL: DIQMTQSPSSLSASLGERVSLTCRASQEISGYLSWLQQKPDGTIKRLIYAASTLDSGVPRRFSGSRSGSDYSLTISSLESEDFADYYCLQYGSYPWTFGGGTKLELK |
